The text below walks through data of article PMC5793882 (Cell, 2018).

This data set concerns the molecule itself. The data set is described as follows: negative-stain electron microscopy.

B1: Drosophila Arc1 protein (natural protein, UniProt Q7K1U0 1-254, looked up)
chain: MAQLTQMTNEQLRELIEAVRAAAVGAAGSAAAAGGADASRGKGNFSACTHSFGGTRDHDVVEEFIGNIETYKDVEGISDENALKGISLLFYGMASTWWQGVRKEATTWKEAIALIREHFSPTKPAYQIYMEFFQNKQDDHDPIDTFVIQKRALLAQLPSGRHDEETELDLLFGLLNIKYRKHISRHSVHTFKDLLEQGRIIEHNNQEDEEQLATAKNTRGSKRTTRCTYCSFRGHTFDNCRKRQKDRQEEQHEE
Regarding B1, the binding result is on record as “binds”.
